{
  "source": "patent US20030022353",
  "data": [
    {"biological_target": "human PARP, P09874", "sequence (P09874 whole entry, looked up)": "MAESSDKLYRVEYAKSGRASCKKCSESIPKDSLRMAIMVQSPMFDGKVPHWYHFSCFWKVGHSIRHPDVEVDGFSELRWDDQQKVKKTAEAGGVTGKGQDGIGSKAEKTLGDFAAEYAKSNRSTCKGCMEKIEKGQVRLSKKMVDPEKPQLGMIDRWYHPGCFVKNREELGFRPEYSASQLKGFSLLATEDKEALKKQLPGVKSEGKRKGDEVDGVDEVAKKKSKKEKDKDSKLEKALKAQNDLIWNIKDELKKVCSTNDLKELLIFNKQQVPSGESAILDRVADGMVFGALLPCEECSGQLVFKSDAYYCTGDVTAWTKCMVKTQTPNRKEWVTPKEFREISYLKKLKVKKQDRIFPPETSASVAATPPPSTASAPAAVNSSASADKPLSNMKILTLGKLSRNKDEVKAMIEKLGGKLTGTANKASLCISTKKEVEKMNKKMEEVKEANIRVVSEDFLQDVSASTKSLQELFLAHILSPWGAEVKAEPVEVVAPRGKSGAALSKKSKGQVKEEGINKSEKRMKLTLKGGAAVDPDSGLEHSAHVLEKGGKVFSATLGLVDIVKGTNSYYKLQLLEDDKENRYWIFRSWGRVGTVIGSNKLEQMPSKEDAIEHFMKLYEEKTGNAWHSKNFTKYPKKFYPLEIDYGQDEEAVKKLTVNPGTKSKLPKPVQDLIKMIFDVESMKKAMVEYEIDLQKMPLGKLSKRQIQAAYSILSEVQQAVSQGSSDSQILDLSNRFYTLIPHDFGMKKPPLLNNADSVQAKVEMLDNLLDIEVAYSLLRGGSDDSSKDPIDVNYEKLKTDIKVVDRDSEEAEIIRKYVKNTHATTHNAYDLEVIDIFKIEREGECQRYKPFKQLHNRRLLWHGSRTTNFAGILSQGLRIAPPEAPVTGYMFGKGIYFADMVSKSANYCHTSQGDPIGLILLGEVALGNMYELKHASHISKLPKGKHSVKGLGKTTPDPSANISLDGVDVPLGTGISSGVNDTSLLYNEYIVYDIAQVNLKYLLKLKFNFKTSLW", "values": [
      {"protein": "Mch2α (protein) MSSASGLRRGHPAGGEENMTETDAFYKREMFDPAEKYKMDHRRRGIALIFNHERFFWHLTLPERRRTCADRDNLTRRFSDLGFEVKCFNDLKAEELLLKIHEVSTVSHADADCFVCVFLSHGEGNHIYAYDAKIEIQTLTGLFKGDKCHSLVGKPKIFIIQACRGNQHDVPVIPLDVVDNQTEKLDTNITEVDAASVYTLPAGADFLMCYSVAEGYYSHRETVNGSWYIQDLCEMLGKYGSSLEFTELLTLVNRKVSQRRVDFCKDPSAIGKKQVPCFASMLTKKLHFFPKSN", "cleavage of PARP in vitro, Western blot": "Mch2α also cleaved PAR: to generate a major product of ˜83 kDa and a minor product of ˜57 kDa similar to that obtained with CPP32"},
      {"protein": "CPP32 (protein) MENTENSVDSKSIKNLEPKIIHGSESMDSGISLDNSYKMDYPEMGLCIIINNKNFHKSTGMTSRSGTDVDAANLRETFRNLKYEVRNKNDLTREEIVELMRDVSKEDHSKRSSFVCVLLSHGEEGIIFGTNGPVDLKKITNFFRGDRCRSLTGKPKLFIIQACRGTELDCGIETDSGVDDDMACHKIPVEADFLYAYSTAPGYYSWRNSKDGSWFIQSLCAMLKQYADKLEFMHILTRVNRKVATEFESFSFDATFHAKKQIPCIVSMLTKELYFYH", "cleavage of PARP in vitro, Western blot": "CPP32 cleaved PARP to generate a major band of ˜90 kDa and a minor band of 57 kDa"},
      {"protein": "Mch2β (protein) MSSASGLRRGHPAVSTVSHADADCFVCVFLSHGEGNHIYAYDAKIEIQTLTGLFKGDKCHSLVGKPKIFIIQACRGNQHDVPVIPLDVVDNQTEKLDTNITEVDAASVYTLPAGADFLMCYSVAEGYYSHRETVNGSWYIQDLCEMLGKYGSSLEFTELLTLVNRKVSQRRVDFCKDPSAIGKKQVPCFASMLTKKLHFFPKSN", "cleavage of PARP in vitro, Western blot": "PARP was not cleaved by Mch2β or ICEγ"},
      {"protein": "ICEγ (protein) MADKVLKEKRKLFIRSMGEAPQAVQDNPAMPTSSGSEGNVKLCSLEEAQRIWKQKSAEIYPIMDKSSRTRLALIICNEEFDSIPRRTGAEVDITGMTMLLQNLGYSVDVKKNLTASDMTTELEAFAHRPEHKTSDSTFLVFMSHGIREGICGKKHSEQVPDILQLNAIFNMLNTKNCPSLKDKPKVIIIQACRGDSPGVVWFKDSVGVSGNLSLPTTEEFEDDAIKKAHIEKDFIAFCSSTPDNVSWRHPTMGSVFIGRLIEHMQEYACSCDVEEIFRKVRFSFEQPDGRAQMPTTERVTLTRCFYLFPGH", "cleavage of PARP in vitro, Western blot": "PARP was not cleaved by Mch2β or ICEγ"}
    ]}
  ]
}
